Measured values reported in patent US20090175886A1 (Bristol-Myers Squibb, published 2009).
“And” between values parts separate entries of the source, which are not always exact repeats. Equal entries are not always repeated. Values belong to the molecule of their own block, whether it stands above or below them.

What was measured:
[1] = target: cynomolgus CD30 on PHA, Con A and rIL-2 activated cynomolgus peripheral blood mononuclear cells (cynomolgus monkey); assay: Scatchard analysis (Bmax), 125I-labelled antibody on activated cynomolgus peripheral blood mononuclear cells
[2] = target: human CD30 expressed on cells (L540, L428, L1236, Karpas cell lines; activated human peripheral blood cells) (human) (UniProt P28908); assay: cell-based or functional assay
[3] = target: human CD30 expressed on cells (L540, L428, L1236, Karpas cell lines; activated human peripheral blood cells) (human) (UniProt P28908); assay: Scatchard analysis, 125I-labelled antibody on L540 cells
[4] = target: human CD30 expressed on cells (L540, L428, L1236, Karpas cell lines; activated human peripheral blood cells) (human) (UniProt P28908); assay: Scatchard analysis, 125I-labelled antibody on PHA/Con A/IL-2 activated human peripheral blood cells
[5] = target: human FcRgammaIIIa, Phe^158 allotype (human) (UniProt P08637); assay: SPR (Biacore): mAb captured on a surface coated with recombinant human CD30, FcRγIIIa Phe158 (CD16-Phe) flowed over, equilibrium signal fitted to a one-site model; Binding Constants (nM)
[6] = target: human FcRgammaIIIa, Val^158 allotype (human) (UniProt P08637); assay: SPR (Biacore): mAb captured on a surface coated with recombinant human CD30, FcRγIIIa Val158 (CD16-Val) flowed over, equilibrium signal fitted to a one-site model; Binding Constants (nM)
[7] = target: human CD30 expressed on cells (L540, L428, L1236, Karpas cell lines; activated human peripheral blood cells) (human) (UniProt P28908); assay: Scatchard analysis (Bmax), 125I-labelled antibody on L540 cells
[8] = target: human CD30 expressed on cells (L540, L428, L1236, Karpas cell lines; activated human peripheral blood cells) (human) (UniProt P28908); assay: Scatchard analysis (Bmax), 125I-labelled antibody on activated human peripheral blood cells
[9] = target: cynomolgus CD30 on PHA, Con A and rIL-2 activated cynomolgus peripheral blood mononuclear cells (cynomolgus monkey); assay: Scatchard analysis, 125I-labelled antibody on PHA/Con A/IL-2 activated cynomolgus peripheral blood mononuclear cells
[10] = target: human CD30 expressed on cells (L540, L428, L1236, Karpas cell lines; activated human peripheral blood cells) (human) (UniProt P28908); assay: flow cytometry on CD30-expressing L540 cells, FITC anti-human secondary antibody
[11] = target: T1, human CD30 expressed on cells (L540, L428, L1236, Karpas cell lines; activated human peripheral blood cells) (human, UniProt P28908 19-595); assay: as above
T1 construct: whole, on cells; also called CD30 antigen
T1 sequence (looked up): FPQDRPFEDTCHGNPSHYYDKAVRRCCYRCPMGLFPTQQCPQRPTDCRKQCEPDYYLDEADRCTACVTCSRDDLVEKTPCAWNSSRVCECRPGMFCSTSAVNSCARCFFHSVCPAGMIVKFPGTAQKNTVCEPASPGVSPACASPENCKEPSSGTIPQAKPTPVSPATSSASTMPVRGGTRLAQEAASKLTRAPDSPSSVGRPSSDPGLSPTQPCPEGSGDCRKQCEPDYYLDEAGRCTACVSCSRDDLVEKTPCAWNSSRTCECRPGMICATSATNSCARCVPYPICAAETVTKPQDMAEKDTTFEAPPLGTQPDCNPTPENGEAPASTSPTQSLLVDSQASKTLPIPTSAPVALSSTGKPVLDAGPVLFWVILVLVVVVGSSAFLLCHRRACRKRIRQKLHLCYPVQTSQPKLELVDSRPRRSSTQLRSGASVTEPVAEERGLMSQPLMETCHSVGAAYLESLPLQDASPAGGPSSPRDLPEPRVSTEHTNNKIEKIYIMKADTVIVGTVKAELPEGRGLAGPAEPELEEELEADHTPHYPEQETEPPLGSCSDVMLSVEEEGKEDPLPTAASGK

[12] = target: T1, human CD30 expressed on cells (L540, …); assay: cell-based or functional assay
[13] = target: T1, human CD30 expressed on cells (L540, …); assay: Scatchard analysis, 125I-labelled antibody on L540 cells
Method: (§1) Human or cynomolgus peripheral blood cells were stimulated with 2 μg/ml PHA, 10 μg/ml Con A, and 50 U/ml rIL-2 and cultured in RPMI1640 media containing 10% fetal bovine serum (FBS) at 1×10⁶ cells/ml density for 3 days. On the day of the study, the cells were washed and adjusted to 2×10⁷ cells/ml in binding buffer (RPMI1640+10% FBS). […] The cells were placed on ice until the initiation of the experiment. Millipore glass fiber filter plates (MAFBNOB50) were coated with 1% nonfat dry milk in water and stored a 4° C. overnight. The plates were washed three times with 0.2 ml of binding buffer. Fifty microliters of buffer alone was added to the maximum binding wells (total binding). Twenty-five microliters of buffer alone was added to the control wells. Varying concentration of ¹²⁵I-anti-CD30 antibody was added to all wells in a volume of 25 μl. Varying concentrations of unlabeled antibody at 300-400 fold excess were added in a volume of 25 μl to control wells (non-specific binding) and 25 μl of CD30 positive L540 cells or stimulated human or cynomolgus peripheral blood cells in binding buffer were added to all wells. The plates were incubated for 2 hours at 200 RPM on a shaker at 4° C. At the completion of the incubation the Millipore plates were washed twice with 0.2 ml of cold wash buffer (RPMI1640, 10% FBS, 500 mM NaCl). The filters were removed and counted in a gamma counter. […]

[14] = target: T1, human CD30 expressed on cells (L540, …); assay: Scatchard analysis, 125I-labelled antibody on PHA/Con A/IL-2 activated human peripheral blood cells
Method: as §1

[15] = target: T1, human CD30 expressed on cells (L540, …); assay: cell-based or functional assay; remark: listed apart in the source
[16] = target: T2, cynomolgus CD30 on PHA, Con A and rIL-2 activated cynomolgus peripheral blood mononuclear cells (cynomolgus monkey, UniProt A0A2K5VW07 29-603); assay: Scatchard analysis, 125I-labelled antibody on PHA/Con A/IL-2 activated cynomolgus peripheral blood mononuclear cells
T2 construct: whole, on cells
T2 sequence: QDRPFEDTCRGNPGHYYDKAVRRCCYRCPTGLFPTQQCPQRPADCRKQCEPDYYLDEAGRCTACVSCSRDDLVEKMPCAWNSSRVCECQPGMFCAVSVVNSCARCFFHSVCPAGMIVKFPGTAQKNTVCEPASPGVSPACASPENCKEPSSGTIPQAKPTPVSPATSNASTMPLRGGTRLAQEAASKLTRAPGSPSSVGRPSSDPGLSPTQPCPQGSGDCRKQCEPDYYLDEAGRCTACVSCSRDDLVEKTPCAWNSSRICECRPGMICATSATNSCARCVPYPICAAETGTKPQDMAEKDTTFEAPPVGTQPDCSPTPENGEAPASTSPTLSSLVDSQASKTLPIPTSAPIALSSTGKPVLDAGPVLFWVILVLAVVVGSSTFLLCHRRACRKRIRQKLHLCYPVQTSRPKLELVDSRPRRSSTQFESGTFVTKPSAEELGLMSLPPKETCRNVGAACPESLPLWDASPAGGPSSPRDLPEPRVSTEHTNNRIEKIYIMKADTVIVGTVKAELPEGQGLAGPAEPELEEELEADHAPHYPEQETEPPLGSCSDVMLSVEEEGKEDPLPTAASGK
Method: as §1

human FcRgammaIIIa, Phe^158 allotype (human), sequence (P08637 17-208 limits assumed): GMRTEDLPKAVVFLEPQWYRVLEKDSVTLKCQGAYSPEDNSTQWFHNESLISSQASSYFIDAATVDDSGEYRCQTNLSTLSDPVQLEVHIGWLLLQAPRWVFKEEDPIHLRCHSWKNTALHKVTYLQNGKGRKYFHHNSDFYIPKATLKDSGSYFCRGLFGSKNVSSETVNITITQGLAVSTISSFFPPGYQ
human FcRgammaIIIa, Val^158 allotype (human), sequence (P08637 17-208 F176V limits assumed): as the sequence (P08637 17-208 limits assumed) above, with F160V counted along it

Receptors Per Cell (ave) (receptors per cell) [1]: 72800 | % Lysis, 51Cr release ADCC, Karpas cells, 25 µg/ml antibody, target:effector 1:50 [2]: 19% | % Lysis, 51Cr release ADCC, L428 cells, 25 µg/ml antibody, target:effector 1:50 [2]: 20% | % Lysis, 51Cr release ADCC, L540 cells, 25 µg/ml antibody, target:effector 1:50 [2]: 42% | % Lysis, 51Cr release ADCC, L1236 cells, 25 µg/ml antibody, target:effector 1:50 [2]: 4% | % cell lysis, ADCC, Karpas 299 cells, cynomolgus effector cells, 10 µg/mL antibody [2]: 7% and 10% | EC50 of ADCC, Karpas cells [2]: 0.25 µg/mL | EC50 of ADCC, L428 cells [2]: 0.1 µg/mL | EC50 of ADCC, L540 cells [2]: 0.042 µg/mL | EC50 of ADCC, L540 cells, heterozygous FcRγIIIaPhe/Val^158 human effector cells [2]: 0.0589 µg/mL | EC50 of ADCC, L540 cells, homozygous FcγIIIa Phe/Phe^158 effector cells [2]: 0.0337 µg/mL | EC50 of ADCC, L1236 cells [2]: 1.22 µg/mL | maximal percent cell lysis, ADCC, L540 cells, heterozygous FcRγIIIaPhe/Val^158 human effector cells [2]: 31% | maximal percent cell lysis, ADCC, L540 cells, homozygous FcγIIIa Phe/Phe^158 effector cells [2]: 15% | Kd [3]: 1.37 nM | Kd [4]: 1.08 nM | Kd [5]: 1090 nM | Kd [6]: 177 nM | Receptors Per Cell (ave) (receptors per cell) [7]: 2.5e+06 | Receptors Per Cell (ave) (receptors per cell) [8]: 45700 | Kd [9]: 0.47 nM | EC50 [10]: 0.18 µg/mL
Molecule: fucosylated 5F11 human anti-CD30 monoclonal antibody produced in CHO DG44 cells

EC50 [11]: 0.196 µg/mL | EC50 of ADCC, L540 cells, FcγRIIIa Phe/Phe^158 effector cells [12]: 0.0199 µg/mL | EC50 of ADCC, L540 cells, FcγRIIIa Val/Phe^158 effector cells [12]: 0.0131 µg/mL | fold increase in ADCC activity compared to 5F11 CHO [12]: 20 fold | Kd [5]: 41 nM
B1: 5F11 LEX^Opt mAb (glyco-optimized 5F11 produced in Lemna minor with FucT/XylT RNAi, vector MDXA04) (antibody, V domains shown)
VH: QVQLQQWGAGLLKPSETLSLTCAVYGGSFSAYYWSWIRQPPGKGLEWIGDINHGGGTNYNPSLKSRVTISVDTSKNQFSLKLNSVTAADTAVYYCASLTAYWGQGSLVTVSS
VL: DIQMTQSPTSLSASVGDRVTITCRASQGISSWLTWYQQKPEKAPKSLIYAASSLQSGVPSRFSGSGSGTDFTLTISSLQPEDFATYYCQQYDSYPITFGQGTRLEIK
notes: N-glycans at Asn 297 are 95.8% GnGn (G0), with no fucosyl or xylosyl; also called MDXA04 derived mAb; glyco-optimized anti-CD30 mAb

Kd [13]: 1.93 nM | Kd [14]: 2.66 nM | % Lysis ratio fucosyl-:fucosyl+, ADCC, Karpas cells [15]: 2.63 | % Lysis ratio fucosyl-:fucosyl+, ADCC, L428 cells [15]: 2.15 | % Lysis ratio fucosyl-:fucosyl+, ADCC, L540 cells [15]: 1.61 | % Lysis ratio fucosyl-:fucosyl+, ADCC, L1236 cells [15]: 3.25 | EC50 of ADCC, Karpas cells [15]: 0.032 µg/mL | EC50 of ADCC, L428 cells [15]: 0.009 µg/mL | EC50 of ADCC, L540 cells [15]: 0.009 µg/mL | EC50 of ADCC, L1236 cells [15]: 0.045 µg/mL | EC50 ratio fucosyl+:fucosyl-, ADCC, Karpas cells [15]: 7.8 | EC50 ratio fucosyl+:fucosyl-, ADCC, L428 cells [15]: 11.1 | EC50 ratio fucosyl+:fucosyl-, ADCC, L540 cells [15]: 4.7 | EC50 ratio fucosyl+:fucosyl-, ADCC, L1236 cells [15]: 27.1 | Kd [16]: 0.83 nM
B2: defucosylated 5F11 human anti-CD30 monoclonal antibody produced in Ms704 (FUT8-/-) cells (antibody, V domains shown)
VH: B1 VH
VL: B1 VL
notes: also called defuc-5F11; defucosylated anti-CD30 antibody
